Experimental data as given in PMC8224933.

Target: atypical chemokine receptor 3 (human (endogenous in hVSMCs)), P25106
Experiment: proximity ligation; Duolink II PLA on hVSMCs fixed with 4% paraformaldehyde; two primary antibodies from differing species (1:500, 37°C, 105 min); control: omission of one primary antibody; PLA signals per cell counted; cells untreated or incubated 72 h with non-targeting, CXCR4, ACKR3 or AVPR1A siRNA
Details: remark: other sources report otherwise

Sequence of atypical chemokine receptor 3 (human (endogenous in hVSMCs)), P25106 (P25106 whole entry): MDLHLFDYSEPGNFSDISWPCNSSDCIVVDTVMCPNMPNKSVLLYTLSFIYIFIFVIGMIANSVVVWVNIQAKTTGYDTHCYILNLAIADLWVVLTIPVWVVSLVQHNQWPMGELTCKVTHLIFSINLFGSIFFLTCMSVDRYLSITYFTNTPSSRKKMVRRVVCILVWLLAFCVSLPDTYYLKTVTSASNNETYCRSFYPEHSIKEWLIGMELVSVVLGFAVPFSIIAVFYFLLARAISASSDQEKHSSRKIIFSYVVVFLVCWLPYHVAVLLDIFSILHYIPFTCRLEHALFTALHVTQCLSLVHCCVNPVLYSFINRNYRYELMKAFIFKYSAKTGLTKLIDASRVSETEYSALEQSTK

B1: chemokine (C-X-C motif) receptor 4, P61073 1-352 (receptor)
chain: MEGISIYTSDNYTEEMGSGDYDSMKEPCFREENANFNKIFLPTIYSIIFLTGIVGNGLVILVMGYQKKLRSMTDKYRLHLSVADLLFVITLPFWAVDAVANWYFGNFLCKAVHVIYTVNLYSSVLILAFISLDRYLAIVHATNSQRPRKLLAEKVVYVGVWIPALLLTIPDFIFANVSEADDRYICDRFYPNDLWVVVFQFQHIMVGLILPGIVILSCYCIIISKLSHSKGHQKRKALKTTVILILAFFACWLPYYIGISIDSFILLEIIKQGCEFENTVHKWISITEALAFFHCCLNPILYAFLGAKFKTSAQHALTSVSRGSSLKILSKGKRGGHSSVSTESESSSFHSS
Binder B1 has an increase in PLA signals after AVPR1A siRNA, % of NT siRNA of 59%.
